Test results reported in paper PMC5829300.

Molecular target: ^hexYME1^WB (^hexYME1 variant containing an E381Q Walker B mutant) (yeast) (UniProt P32795)
Experiment: cryo-EM structure

Substance: ^hexYME1^WB (^hexYME1 variant containing an E381Q Walker B mutant) (from UniProt P32795 279-712) (enzyme)
- stoichiometry N: 6
